Drawing on paper PMC11804907, this text covers response for one substance.

What all share (test): synthetic bead recruitment assay in embryos (fluorescence intensity at ALFA-tag-Nanobody-coupled beads)
The target in assay [1] is RFP-Cnn (UniProt P54623). Conditions: beads injected into embryos expressing RFP-Cnn and Polo-GFP with mRNA encoding ALFA-tagged Spd-2; beads-only background est. 0.75; parent: est. 2.4; read off a plot.
For assay [2], the target named is mCherry-TACC (UniProt Q9VN51). Conditions: beads injected into embryos expressing mCherry-TACC and AurA-GFP with mRNA encoding ALFA-tagged Spd-2; beads-only background est. 0.65; parent: est. 2.0; read off a plot.
UniProt Q9VN51, sequence (Q9VN51 entry or part of it): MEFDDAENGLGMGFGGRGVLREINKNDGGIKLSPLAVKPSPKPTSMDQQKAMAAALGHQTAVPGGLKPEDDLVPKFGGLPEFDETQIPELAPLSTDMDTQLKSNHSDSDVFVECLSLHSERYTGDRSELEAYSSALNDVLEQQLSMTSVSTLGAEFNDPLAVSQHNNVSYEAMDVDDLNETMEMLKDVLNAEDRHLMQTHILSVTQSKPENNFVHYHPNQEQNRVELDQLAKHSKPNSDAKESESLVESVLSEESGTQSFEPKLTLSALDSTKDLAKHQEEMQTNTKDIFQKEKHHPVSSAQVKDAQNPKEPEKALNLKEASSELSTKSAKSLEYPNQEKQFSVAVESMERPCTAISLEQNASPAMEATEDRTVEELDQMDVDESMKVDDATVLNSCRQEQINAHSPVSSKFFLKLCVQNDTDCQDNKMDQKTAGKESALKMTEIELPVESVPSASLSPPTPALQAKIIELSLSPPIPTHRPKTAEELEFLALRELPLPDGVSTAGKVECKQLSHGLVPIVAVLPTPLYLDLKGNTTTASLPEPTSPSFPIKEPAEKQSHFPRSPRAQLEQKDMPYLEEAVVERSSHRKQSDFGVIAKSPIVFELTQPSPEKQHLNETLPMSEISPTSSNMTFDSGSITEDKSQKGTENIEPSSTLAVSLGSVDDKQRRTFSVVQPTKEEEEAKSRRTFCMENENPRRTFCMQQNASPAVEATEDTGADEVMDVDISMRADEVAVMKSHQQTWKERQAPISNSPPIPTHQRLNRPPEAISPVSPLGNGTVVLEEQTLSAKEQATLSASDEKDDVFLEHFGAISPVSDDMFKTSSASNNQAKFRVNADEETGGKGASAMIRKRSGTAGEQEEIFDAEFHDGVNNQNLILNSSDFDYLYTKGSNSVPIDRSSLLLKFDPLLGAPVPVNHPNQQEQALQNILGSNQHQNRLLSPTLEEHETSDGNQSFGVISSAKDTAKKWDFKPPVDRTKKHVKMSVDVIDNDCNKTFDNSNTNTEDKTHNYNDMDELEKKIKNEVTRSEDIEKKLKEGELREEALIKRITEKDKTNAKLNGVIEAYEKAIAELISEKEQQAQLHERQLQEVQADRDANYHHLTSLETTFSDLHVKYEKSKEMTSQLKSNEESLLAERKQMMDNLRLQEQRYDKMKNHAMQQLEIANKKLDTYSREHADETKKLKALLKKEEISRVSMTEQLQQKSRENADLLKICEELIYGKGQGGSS
Assay [3] concerns the target AurA-GFP (UniProt Q27393). As to conditions: beads injected into embryos expressing mCherry-TACC and AurA-GFP with mRNA encoding ALFA-tagged Spd-2; beads-only background est. 0.5; parent: est. 2.1; read off a plot.
UniProt Q27393, sequence (Q27393 entry or part of it): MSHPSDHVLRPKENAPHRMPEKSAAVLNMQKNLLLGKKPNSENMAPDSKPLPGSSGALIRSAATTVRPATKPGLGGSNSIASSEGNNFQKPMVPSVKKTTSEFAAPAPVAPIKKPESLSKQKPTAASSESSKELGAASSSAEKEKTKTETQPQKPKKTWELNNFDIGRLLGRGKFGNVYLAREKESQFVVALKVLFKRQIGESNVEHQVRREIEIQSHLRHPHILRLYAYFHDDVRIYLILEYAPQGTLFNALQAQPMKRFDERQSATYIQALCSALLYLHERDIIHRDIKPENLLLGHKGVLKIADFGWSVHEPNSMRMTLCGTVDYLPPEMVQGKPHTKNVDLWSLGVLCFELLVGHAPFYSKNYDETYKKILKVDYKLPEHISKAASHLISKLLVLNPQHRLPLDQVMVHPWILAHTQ
Assay [4] deals with Polo-GFP (UniProt P52304). As to conditions: beads injected into embryos expressing RFP-Cnn and Polo-GFP with mRNA encoding ALFA-tagged Spd-2; beads-only background est. 1.0; parent: est. 2.0; read off a plot.
UniProt P52304, sequence (P52304 whole entry): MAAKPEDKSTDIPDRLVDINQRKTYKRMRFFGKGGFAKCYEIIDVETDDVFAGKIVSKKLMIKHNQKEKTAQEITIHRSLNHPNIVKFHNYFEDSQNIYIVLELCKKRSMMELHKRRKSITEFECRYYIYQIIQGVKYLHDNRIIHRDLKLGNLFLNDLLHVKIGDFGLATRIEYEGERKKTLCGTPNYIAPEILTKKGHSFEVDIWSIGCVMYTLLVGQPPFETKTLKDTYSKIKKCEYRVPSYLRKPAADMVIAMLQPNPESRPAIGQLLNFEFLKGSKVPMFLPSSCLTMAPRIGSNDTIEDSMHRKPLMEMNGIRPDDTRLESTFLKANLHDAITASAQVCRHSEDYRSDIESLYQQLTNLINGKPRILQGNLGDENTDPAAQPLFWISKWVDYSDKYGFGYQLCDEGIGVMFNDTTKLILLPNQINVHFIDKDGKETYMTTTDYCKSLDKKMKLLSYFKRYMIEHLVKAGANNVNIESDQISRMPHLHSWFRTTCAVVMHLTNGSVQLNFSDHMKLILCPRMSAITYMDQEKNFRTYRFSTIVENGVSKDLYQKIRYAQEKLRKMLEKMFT

UniProt P54623, sequence (P54623 whole entry): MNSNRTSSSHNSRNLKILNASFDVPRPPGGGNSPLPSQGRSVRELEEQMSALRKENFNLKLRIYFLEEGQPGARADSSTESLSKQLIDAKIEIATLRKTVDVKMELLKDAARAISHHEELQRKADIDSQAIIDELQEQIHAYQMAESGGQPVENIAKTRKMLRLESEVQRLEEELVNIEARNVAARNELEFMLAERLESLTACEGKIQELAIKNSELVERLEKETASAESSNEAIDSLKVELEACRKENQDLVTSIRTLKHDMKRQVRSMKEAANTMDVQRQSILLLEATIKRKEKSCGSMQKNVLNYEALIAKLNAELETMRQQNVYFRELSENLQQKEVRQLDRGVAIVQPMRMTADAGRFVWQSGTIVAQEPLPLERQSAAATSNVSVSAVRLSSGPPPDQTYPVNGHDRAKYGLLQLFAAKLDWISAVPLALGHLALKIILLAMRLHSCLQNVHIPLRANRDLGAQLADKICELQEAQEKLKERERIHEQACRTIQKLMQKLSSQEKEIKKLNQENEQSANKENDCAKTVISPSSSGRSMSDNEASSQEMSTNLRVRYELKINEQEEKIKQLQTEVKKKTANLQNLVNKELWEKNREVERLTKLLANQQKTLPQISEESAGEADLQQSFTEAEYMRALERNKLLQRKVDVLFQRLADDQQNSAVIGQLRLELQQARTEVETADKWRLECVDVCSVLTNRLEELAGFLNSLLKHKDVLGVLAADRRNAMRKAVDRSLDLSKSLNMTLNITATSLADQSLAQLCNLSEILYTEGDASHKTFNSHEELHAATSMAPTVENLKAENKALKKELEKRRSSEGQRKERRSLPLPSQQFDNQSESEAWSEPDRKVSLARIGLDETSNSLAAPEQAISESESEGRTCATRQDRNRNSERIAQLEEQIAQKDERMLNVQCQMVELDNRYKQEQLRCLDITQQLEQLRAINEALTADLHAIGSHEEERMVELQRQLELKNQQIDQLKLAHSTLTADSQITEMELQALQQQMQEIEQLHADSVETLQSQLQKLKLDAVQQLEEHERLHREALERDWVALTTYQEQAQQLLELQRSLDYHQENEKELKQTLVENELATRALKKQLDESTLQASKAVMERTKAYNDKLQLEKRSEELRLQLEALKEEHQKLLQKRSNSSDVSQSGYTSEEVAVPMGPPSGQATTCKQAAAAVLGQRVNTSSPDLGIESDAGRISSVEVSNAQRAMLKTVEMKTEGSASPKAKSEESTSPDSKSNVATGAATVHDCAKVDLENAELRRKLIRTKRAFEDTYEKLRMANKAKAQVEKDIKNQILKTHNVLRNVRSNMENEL

Turning to “WT Spd-2-ALFA (from UniProt Q9VV79) ∆Polo (all 34 S-S/T motifs mutated to T-S/T; individual positions not printed)”, the response turned out to be 0.85 A.U in assay [1], 2.3 A.U in assay [2], 2.3 A.U in assay [3] and 0.95 A.U in assay [4].
